{
  "source": "paper PMC7228087",
  "about": "“Atco, a yeast mitochondrial complex of Atp9 and Cox6, is an assembly intermediate of the ATP synthase” (PLoS ONE, 2020)",
  "target": "T1, Cox6 with a tandem hemagglutinin plus protein C tag (S. cerevisiae, UniProt P00427 41-148)",
  "T1 construct": "Cox6, nuclear-encoded imported structural subunit of cytochrome oxidase, S. cerevisiae; also called Cox6-HAC; COX6-HAC; source: expressed in S. cerevisiae (cox6::URA3 trp1::pG71/ST9), in digitonin extract of mitochondria",
  "T1 sequence (looked up)": "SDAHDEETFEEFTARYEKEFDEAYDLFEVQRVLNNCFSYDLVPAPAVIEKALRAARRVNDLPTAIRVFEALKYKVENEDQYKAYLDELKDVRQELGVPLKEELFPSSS",
  "test": "co-IP; as a1 but from an oxa1 null mutant expressing Cox6-HAC; radiolabel quantified as ratio to the OXA1 strain",
  "conditions": "partners not purified",
  "data": [
    {"binder": "Atp9 (natural protein, UniProt P61829 1-76, looked up, Atp9, mitochondrially encoded subunit of the ATP synthase ring, S. cerevisiae; wild type with native cysteine at residue 65; The introduction says that the ring of the ATP synthase has 10 copies of Atp9; In Atco the protein is oligomeric but not a ring; also called A9; Atp9 ring; source: submitochondrial particles for Western blots) MQLVLAAKYIGAGISTIGLLGAGIGIAIVFAALINGVSRNPSIKDTVFPMAILGFALSEATGLFCLMVSFLLLFGV", "values": [
      {"measurement": "ratio (Δoxa1/OXA1) of radiolabel in the PC eluate, SDS-PAGE", "value": 0.124, "unit": "ratio"}
    ]}
  ]
}
